Data set [1] concerns the molecule itself. As to the kind of experiment: crystal structure; crystals of apo and citraconate-bound hACOD1 (4-461) grown in conditions containing calcium acetate; solved by molecular replacement with PDB 6R6U; two protomers (chains A and B) form the dimer.
Substrate in the data set “purified protein”: O=C(O)/C=C(/CC(=O)O)C(=O)O
The data set can be described thus: purified protein. The format is biochemical, Homo sapiens. The settings on record: active site.

The values that follow come from article doi:10.1101/2025.06.13.659517, “Analysis of apo and citraconate-bound hACOD1 (hIRG1) by X-ray crystallography and NMR spectroscopy: Structural insights for developing chemotherapeutic agents” (bioRxiv, 2025).

As usually defined, the stoichiometry N is a count of units in the complex or per binding partner. One may read the Km as the substrate concentration at which the rate is half of its maximum.

B1: Human aconitate decarboxylase 1 (hACOD1), residues 4-461 (enzyme, UniProt A6NK06 4-461, looked up)
chain: KSITESFATAIHGLKVGHLTDRVIQRSKRMILDTLGAGFLGTTTEVFHIASQYSKIYSSNISSTVWGQPDIRLPPTYAAFVNGVAIHSMDFDDTWHPATHPSGAVLPVLTALAEALPRSPKFSGLDLLLAFNVGIEVQGRLLHFAKEANDMPKRFHPPSVVGTLGSAAAASKFLGLSSTKCREALAIAVSHAGAPMANAATQTKPLHIGNAAKHGIEAAFLAMLGLQGNKQVLDLEAGFGAFYANYSPKVLPSIASYSWLLDQQDVAFKRFPAHLSTHWVADAAASVRKHLVAERALLPTDYIKRIVLRIPNVQYVNRPFPVSEHEARHSFQYVACAMLLDGGITVPSFHECQINRPQVRELLSKVELEYPPDNLPSFNILYCEISVTLKDGATFTDRSDTFYGHWRKPLSQEDLEEKFRANASKMLSWDTVESLIKIVKNLEDLEDCSVLTTLLKGP
notes: The tag actually on the construct is therefore uncertain; also called hIRG1; hACOD1 (4-461); source: E. coli BL21-CodonPlus (RIPL), purified (StrepTactin column, TEV protease, SEC)
Consider B1, for which, in data set [1], the “stoichiometry N” value stood at 2. Also, the Km in the data set “purified protein” worked out at 9.3 ± 2.1 mM.
